This test concerns the target T1, Recombinant GST-tagged hDPP3 (human) (UniProt Q9NY33).
T1 sequence: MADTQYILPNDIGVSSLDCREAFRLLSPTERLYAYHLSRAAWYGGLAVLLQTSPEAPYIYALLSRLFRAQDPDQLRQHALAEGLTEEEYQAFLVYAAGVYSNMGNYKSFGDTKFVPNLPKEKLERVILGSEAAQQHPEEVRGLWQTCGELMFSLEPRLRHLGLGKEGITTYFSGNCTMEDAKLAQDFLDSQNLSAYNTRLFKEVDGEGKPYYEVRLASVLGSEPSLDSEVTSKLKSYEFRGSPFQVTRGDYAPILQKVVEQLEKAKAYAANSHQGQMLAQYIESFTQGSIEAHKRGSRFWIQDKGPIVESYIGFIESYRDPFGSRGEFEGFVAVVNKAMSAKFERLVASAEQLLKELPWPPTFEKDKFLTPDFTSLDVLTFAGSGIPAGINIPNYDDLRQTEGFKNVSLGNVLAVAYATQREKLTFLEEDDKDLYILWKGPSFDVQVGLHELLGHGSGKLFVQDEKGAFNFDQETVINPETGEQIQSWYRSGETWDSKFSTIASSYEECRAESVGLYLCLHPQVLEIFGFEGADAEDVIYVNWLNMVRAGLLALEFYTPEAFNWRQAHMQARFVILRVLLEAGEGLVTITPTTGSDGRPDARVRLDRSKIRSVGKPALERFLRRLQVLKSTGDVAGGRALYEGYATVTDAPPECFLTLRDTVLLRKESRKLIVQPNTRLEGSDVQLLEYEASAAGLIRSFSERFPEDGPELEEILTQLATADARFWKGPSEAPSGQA
Put plainly: cell-based or functional assay.

B1: anti-DPP3 antibody clone 2555 (antibody, from another filing, V domains shown)
VH: EVQLQQSGPELVKPGASVKISCKASGYSFTGYYIHWVKQSPENSLEWIGEINPSTGGTNYNQKFKGKATLTVDKSSSTAYMQLKSLTSEESAVYYCTRSYYGIYSWFAYWGQGTLVTVSA
VL: DIKMTQSPSSMYASLGERVTITCKASQDIKSYLSWYQQKPWKSPKTLIYYATSLADGVPSRFSGSGSGQDYSLTISSLESDDTATYYCLQHGESPRTFGGGTKLEIK
With B1, the Max inhibition of hDPP3 was found to be 25%.

Values taken from EP3922993A1.
